This data set deals with Escherichia coli TOP10. The experiment in a line: shrunken log2 fold change of peptide-encoding DNA abundance (4.5 h post-induction vs induction); higher = less antimicrobial activity (less host growth inhibition). The settings on record: time post-induction: 4.5 h; library: site-saturation at positions 5, 18, 19, 20.
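Also: peptides expressed intracellularly from a pBAD plasmid library in pooled LB shake-flask culture, induced with 0.3% L-arabinose, DNA abundance read by NGS, three biological replicates, DESeq2 with apeglm shrinkage.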

For RRIRPRPPRLPRPRPRPEIEPRP, the “shrunken log2 fold change” value turned out to be 0.0922. To RRIRHRPPRLPRPRPRPMTIPRP belongs -0.081; to RRIRCRPPRLPRPRPRPQKLPRP, -0.188; to RRIRPRPPRLPRPRPRPQSLPRP, -0.288. The figure for RRIRHRPPRLPRPRPRPTDKPRP is -0.185; for RRIRFRPPRLPRPRPRPKIEPRP it is -0.202. As to RRIRSRPPRLPRPRPRPGNYPRP, the “shrunken log2 fold change” value was -0.0556. The figure for RRIRKRPPRLPRPRPRPFWNPRP is -0.0468; for RRIRCRPPRLPRPRPRPQAWPRP it is -0.23; for RRIRERPPRLPRPRPRPAILPRP it is -0.629. As to RRIRIRPPRLPRPRPRPKEPPRP, the “shrunken log2 fold change” value is 0.0805. The figure for RRIRPRPPRLPRPRPRPSIGPRP is 0.166.

Consider RRIRPRPPRLPRPRPRPMTMPRP, for which the “shrunken log2 fold change” value is -0.469.

Regarding RRIRVRPPRLPRPRPRPPFGPRP, the “shrunken log2 fold change” value was found to be 0.298. To RRIRMRPPRLPRPRPRPTDWPRP belongs 1.27; to RRIRERPPRLPRPRPRPRTWPRP, -0.149.

As to RRIRRRPPRLPRPRPRPCSMPRP, the “shrunken log2 fold change” value was 0.464. For RRIRDRPPRLPRPRPRPLQDPRP, the “shrunken log2 fold change” value came out at 0.115. As for RRIRFRPPRLPRPRPRPQHIPRP, the “shrunken log2 fold change” value was -0.51. On to RRIRYRPPRLPRPRPRPHSCPRP, for which the “shrunken log2 fold change” value is -0.00211.

Take RRIRHRPPRLPRPRPRPGECPRP: the “shrunken log2 fold change” value is -0.377.

For RRIRNRPPRLPRPRPRPAMCPRP, the “shrunken log2 fold change” value is -0.199. The figure for RRIRYRPPRLPRPRPRPTYYPRP is -1.21; for RRIRHRPPRLPRPRPRPHQTPRP it is -0.0667; for RRIRWRPPRLPRPRPRPFSFPRP it is -0.067. To RRIRMRPPRLPRPRPRPPHNPRP belongs 0.767. With RRIRFRPPRLPRPRPRPDKGPRP, the “shrunken log2 fold change” value is -0.0555.

As for RRIRKRPPRLPRPRPRPMFIPRP, the “shrunken log2 fold change” value is -0.0367. The figure for RRIRYRPPRLPRPRPRPEWRPRP is 0.172; for RRIRARPPRLPRPRPRPTAEPRP it is 1.3. To RRIRDRPPRLPRPRPRPNKAPRP belongs 0.0205; to RRIRGRPPRLPRPRPRPMQLPRP, 0.539; to RRIRHRPPRLPRPRPRPIANPRP, -0.24.

Regarding RRIRARPPRLPRPRPRPSYVPRP, the “shrunken log2 fold change” value was -0.232. As to RRIRQRPPRLPRPRPRPAHMPRP, the “shrunken log2 fold change” value was -0.267. The figure for RRIRYRPPRLPRPRPRPRMPPRP is -0.354; for RRIRHRPPRLPRPRPRPTPYPRP it is -0.0416. As to RRIRQRPPRLPRPRPRPLGDPRP, the “shrunken log2 fold change” value is 0.0938.

For RRIRHRPPRLPRPRPRPWDCPRP, the “shrunken log2 fold change” value was -0.00608. With RRIRPRPPRLPRPRPRPRHDPRP, the “shrunken log2 fold change” value stood at 0.186. The figure for RRIRKRPPRLPRPRPRPFCWPRP is 0.48; for RRIRMRPPRLPRPRPRPDLDPRP it is 2.65; for RRIRQRPPRLPRPRPRPADLPRP it is -0.0217. To RRIRQRPPRLPRPRPRPTHFPRP belongs -0.0245; to RRIRRRPPRLPRPRPRPSGLPRP, 0.00401. For the sequence RRIRQRPPRLPRPRPRPEKLPRP, the “shrunken log2 fold change” value was -0.12.

Consider RRIRQRPPRLPRPRPRPDTAPRP, for which the “shrunken log2 fold change” value is -0.0746. The figure for RRIRKRPPRLPRPRPRPCWEPRP is 0.0666; for RRIRMRPPRLPRPRPRPWTYPRP it is -0.0551.

Regarding RRIRVRPPRLPRPRPRPFLNPRP, the “shrunken log2 fold change” value was -0.148. Take RRIRTRPPRLPRPRPRPHKNPRP: the “shrunken log2 fold change” value is -0.415. As to RRIRYRPPRLPRPRPRPSRWPRP, the “shrunken log2 fold change” value turned out to be 0.0398.

As to RRIRGRPPRLPRPRPRPVFEPRP, the “shrunken log2 fold change” value is 1.16. The figure for RRIRMRPPRLPRPRPRPWFFPRP is -0.0229. For RRIRIRPPRLPRPRPRPTPEPRP, the “shrunken log2 fold change” value was determined as 0.232.

For RRIRGRPPRLPRPRPRPGQMPRP, the “shrunken log2 fold change” value amounted to 0.483.

As for RRIRYRPPRLPRPRPRPMPCPRP, the “shrunken log2 fold change” value was -0.0166. To RRIRDRPPRLPRPRPRPVSLPRP belongs -0.442; to RRIRPRPPRLPRPRPRPDKDPRP, -0.173; to RRIRRRPPRLPRPRPRPKHQPRP, 1.57. With RRIRYRPPRLPRPRPRPVTTPRP, the “shrunken log2 fold change” value was -0.209.

RRIRFRPPRLPRPRPRPDNGPRP: the “shrunken log2 fold change” value is -0.13. For RRIRNRPPRLPRPRPRPITKPRP, the “shrunken log2 fold change” value was -0.113. Consider RRIRMRPPRLPRPRPRPDKCPRP, for which the “shrunken log2 fold change” value is -0.0194. The figure for RRIRCRPPRLPRPRPRPCYQPRP is -0.182; for RRIRGRPPRLPRPRPRPMGEPRP it is 0.902. Turning to RRIRFRPPRLPRPRPRPLESPRP, the “shrunken log2 fold change” value is -0.00313. Regarding RRIRIRPPRLPRPRPRPYQAPRP, the “shrunken log2 fold change” value was -0.342. Turning to RRIRQRPPRLPRPRPRPAAAPRP, the “shrunken log2 fold change” value amounted to 0.258. Take RRIRNRPPRLPRPRPRPSKIPRP: the “shrunken log2 fold change” value was -0.846. On to RRIRKRPPRLPRPRPRPRYIPRP, for which the “shrunken log2 fold change” value was -0.268. To RRIRNRPPRLPRPRPRPRVWPRP belongs 3.4; to RRIRERPPRLPRPRPRPEEDPRP, -0.058; to RRIRWRPPRLPRPRPRPCIDPRP, -0.0447. On to RRIRNRPPRLPRPRPRPLSIPRP, for which the “shrunken log2 fold change” value is -0.423. RRIRTRPPRLPRPRPRPHSVPRP: the “shrunken log2 fold change” value was determined as 0.0184. For the sequence RRIRMRPPRLPRPRPRPTCEPRP, the “shrunken log2 fold change” value was determined as 0.745.

In the case of RRIRTRPPRLPRPRPRPSTGPRP, the “shrunken log2 fold change” value is -0.285. To RRIRYRPPRLPRPRPRPQQVPRP belongs -0.0456; to RRIRNRPPRLPRPRPRPVPYPRP, 0.0481; to RRIRIRPPRLPRPRPRPAGHPRP, -0.159. On to RRIRHRPPRLPRPRPRPNWCPRP, for which the “shrunken log2 fold change” value was -0.00989. To RRIRIRPPRLPRPRPRPVARPRP belongs 0.223; to RRIRWRPPRLPRPRPRPTCSPRP, 0.0967. For RRIRNRPPRLPRPRPRPHYAPRP, the “shrunken log2 fold change” value was -0.0337. On to RRIRSRPPRLPRPRPRPPLAPRP, for which the “shrunken log2 fold change” value is 0.812. Turning to RRIRERPPRLPRPRPRPCFIPRP, the “shrunken log2 fold change” value is -0.73. As for RRIRARPPRLPRPRPRPHPVPRP, the “shrunken log2 fold change” value was determined as 0.277. To RRIRQRPPRLPRPRPRPDNMPRP belongs -0.163; to RRIRPRPPRLPRPRPRPKQIPRP, 0.0957. The figure for RRIRLRPPRLPRPRPRPSFGPRP is 0.197. In the case of RRIRHRPPRLPRPRPRPAERPRP, the “shrunken log2 fold change” value was determined as 0.0935. RRIRGRPPRLPRPRPRPLCHPRP: the “shrunken log2 fold change” value was 0.775. RRIRQRPPRLPRPRPRPSMVPRP: the “shrunken log2 fold change” value is -0.632.

Regarding RRIRCRPPRLPRPRPRPMWSPRP, the “shrunken log2 fold change” value is -0.147.

As for RRIRYRPPRLPRPRPRPNREPRP, the “shrunken log2 fold change” value was 0.00551.

As for RRIRTRPPRLPRPRPRPHRGPRP, the “shrunken log2 fold change” value was -0.154. With RRIRARPPRLPRPRPRPGMCPRP, the “shrunken log2 fold change” value was 0.494. To RRIRARPPRLPRPRPRPESLPRP belongs 0.938; to RRIRRRPPRLPRPRPRPEWCPRP, 0.17.

For RRIRGRPPRLPRPRPRPMGHPRP, the “shrunken log2 fold change” value turned out to be 0.202.

Take RRIRCRPPRLPRPRPRPDLIPRP: the “shrunken log2 fold change” value was -0.109. As to RRIRNRPPRLPRPRPRPCIEPRP, the “shrunken log2 fold change” value is -0.117.

On to RRIRIRPPRLPRPRPRPTHIPRP, for which the “shrunken log2 fold change” value is -0.495. As for RRIRMRPPRLPRPRPRPVYYPRP, the “shrunken log2 fold change” value is -0.123. The figure for RRIRYRPPRLPRPRPRPHQLPRP is -0.191. Turning to RRIRERPPRLPRPRPRPMKQPRP, the “shrunken log2 fold change” value is -0.0573. The figure for RRIRGRPPRLPRPRPRPDWTPRP is 0.316; for RRIRGRPPRLPRPRPRPNKLPRP it is -0.096. The figure for RRIRGRPPRLPRPRPRPVPAPRP is 1; for RRIRGRPPRLPRPRPRPPVAPRP it is 1.22.

RRIRYRPPRLPRPRPRPSFVPRP: the “shrunken log2 fold change” value was -0.714. To RRIRKRPPRLPRPRPRPMSLPRP belongs 0.474; to RRIRWRPPRLPRPRPRPMELPRP, 1.2. The figure for RRIRMRPPRLPRPRPRPAALPRP is 0.292.

For RRIRDRPPRLPRPRPRPWAFPRP, the “shrunken log2 fold change” value is -0.01.

With RRIRMRPPRLPRPRPRPKLWPRP, the “shrunken log2 fold change” value was 1.41.

Regarding RRIRSRPPRLPRPRPRPCECPRP, the “shrunken log2 fold change” value is -0.0304. To RRIRFRPPRLPRPRPRPCKPPRP belongs -0.109. Consider RRIRMRPPRLPRPRPRPFHVPRP, for which the “shrunken log2 fold change” value is -0.726. RRIRYRPPRLPRPRPRPKCRPRP: the “shrunken log2 fold change” value is -0.153. To RRIRTRPPRLPRPRPRPDCEPRP belongs 0.0084. Regarding RRIRFRPPRLPRPRPRPYAGPRP, the “shrunken log2 fold change” value is -0.208. The figure for RRIRNRPPRLPRPRPRPMPYPRP is 0.0291. As for RRIRVRPPRLPRPRPRPRADPRP, the “shrunken log2 fold change” value was found to be 0.43.
